Experimental findings from CN115607664A (GENOR BIOPHARMA CO LTD, dated 2023) are described below.

The target in this assay is T1, PD-1 (UniProt Q15116 25-288, limits assumed).
T1 construct: whole, on cells; also called Jurkat/PD-1细胞表面的PD-1
Kind of assay: Jurkat/PD-1 + CHO/PD-L1 NFAT-luciferase reporter blocking assay.

T1 sequence (Q15116 25-288 limits assumed): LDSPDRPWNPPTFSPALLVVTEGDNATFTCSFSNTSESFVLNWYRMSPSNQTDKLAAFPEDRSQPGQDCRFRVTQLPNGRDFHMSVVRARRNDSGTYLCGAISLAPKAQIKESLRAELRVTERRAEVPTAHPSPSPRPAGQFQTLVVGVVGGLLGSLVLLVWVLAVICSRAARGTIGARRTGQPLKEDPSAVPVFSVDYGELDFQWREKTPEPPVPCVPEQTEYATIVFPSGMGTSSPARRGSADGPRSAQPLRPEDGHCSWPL

B1: G-Ab1 (antibody, human IgG4 S228P, kappa, V domains shown)
VH: QIQLVQSGSELKKPGASVKVSCKASGYTFTNFGMNWVRQAPGQGLKWMGWISGYTREPTYAADFKGRFVISLDTSVSTAYLQISSLKAEDTAVYYCARDVFDYWGQGTLVTVSS
VL: DIVLTQSPASLAVSPGQRATITCRASESVDNYGYSFMNWFQQKPGQPPKLLIYRASNLESGVPARFSGSGSRTDFTLTINPVEADDTANYYCQQSNADPTFGQGTKLEIKR
notes: An IgG4 isotype control was used alongside it; also called 抗PD-1抗体; G-Ab1抗体
Regarding B1, the binding result was “binds”.
